Assay results as given in patent publication US20130289246A1.

What was measured:
Assay in all cases: cell-based or functional assay
[1] = target: HA of A/California/04/2009 (H1N1) virus (Influenza A virus (H1N1))
[2] = target: HA of A/Hong Kong/1/1968 (H3N2) virus (Influenza A virus (H3N2)) (UniProt Q91MA7)
[3] = target: HA of A/Vietnam/1203/2004 (H5N1) virus (Influenza A virus (H5N1))
[4] = target: HA of A/Alabama/1/1981 (H3N2) virus (Influenza A virus (H3N2))

Q: With murine hybridoma mAb S139/1 (antibody) as the substance, how does the HAI activity [1] read?
A: > 50 µg/mL

Q: What about the HAI activity [2] of the same substance?
A: < 0.2 µg/mL

Q: What about the HAI activity [3] of the same substance?
A: > 50 µg/mL

Q: And the HAI activity [4]?
A: > 50 µg/mL
